Experimental data published in article PMC3552326.
Like-named read-outs stand apart in the source and are kept apart here.

Columns and labels:
[1] = target: Dns136-α-synuclein (Y136C, dansyl-labelled) (human) (UniProt P37840); assay: other fluorescence titration
[2] = target: Dns100-α-synuclein (L100C, dansyl-labelled) (human) (UniProt P37840); assay: FRET or BRET
[3] = target: Dns136-α-synuclein (Y136C, dansyl-labelled) (human) (UniProt P37840); assay: FRET or BRET
[4] = target: Dns136-α-synuclein (Y136C, dansyl-labelled) (human) (UniProt P37840); assay: other fluorescence titration; remark: listed apart in the source
[5] = target: Dns100-α-synuclein (L100C, dansyl-labelled) (human) (UniProt P37840); assay: other fluorescence titration
[6] = target: Dns136-α-synuclein (Y136C, dansyl-labelled) (human) (UniProt P37840); assay: other fluorescence titration; remark: listed apart in the source
[7] = target: α-synuclein peptide residues 118–140 containing C136, dansyl-labelled (DnsC23) (human) (UniProt P37840); assay: other fluorescence titration
[8] = target: Dns100-α-synuclein (L100C, dansyl-labelled) (human) (UniProt P37840); assay: other fluorescence titration; remark: listed apart in the source

Kd [1]: 11 µM
<λ> shift [2]: 2 nm
<λ> shift [3]: 6 nm
Kd [4]: 1000 nM
Kd [5]: 40 µM
Kd [6]: 8 µM
Kd [7]: 2000 nM
Kd [8]: 1000 nM
Substance: glucocerebrosidase (taliglucerase alfa, recombinant GCase) (from UniProt P04062 40-533) (enzyme)
